Results published in US20030068788A1.
Values belong to the binder of their own block, whether it stands above or below them.

Assays:
[1] = target: T1, ferredoxin encoded by fd233 from strain I-1529
T1 chain: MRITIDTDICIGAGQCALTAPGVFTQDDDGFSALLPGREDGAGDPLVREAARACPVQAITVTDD

[2] = target: T2, P450Ema1 monooxygenase from Streptomyces tubercidicus strain R-922 (Streptomyces tubercidicus strain R-922); assay: cell-based or functional assay
T2 sequence: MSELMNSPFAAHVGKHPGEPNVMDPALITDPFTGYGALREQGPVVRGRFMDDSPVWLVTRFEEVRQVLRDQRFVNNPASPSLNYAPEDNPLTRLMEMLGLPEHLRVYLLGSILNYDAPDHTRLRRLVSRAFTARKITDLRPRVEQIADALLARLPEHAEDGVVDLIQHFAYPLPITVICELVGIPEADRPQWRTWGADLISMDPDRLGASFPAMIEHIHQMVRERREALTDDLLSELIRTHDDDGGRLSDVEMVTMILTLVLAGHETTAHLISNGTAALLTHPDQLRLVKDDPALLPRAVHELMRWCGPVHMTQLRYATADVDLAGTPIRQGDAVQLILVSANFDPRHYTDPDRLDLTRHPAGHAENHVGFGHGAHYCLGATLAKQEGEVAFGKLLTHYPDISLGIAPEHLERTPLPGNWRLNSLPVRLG

[3] = target: T3, P450Ema2 monooxygenase from Streptomyces tubercidicus strain I-1529 (Streptomyces tubercidicus strain I-1529); assay: cell-based or functional assay
T3 sequence: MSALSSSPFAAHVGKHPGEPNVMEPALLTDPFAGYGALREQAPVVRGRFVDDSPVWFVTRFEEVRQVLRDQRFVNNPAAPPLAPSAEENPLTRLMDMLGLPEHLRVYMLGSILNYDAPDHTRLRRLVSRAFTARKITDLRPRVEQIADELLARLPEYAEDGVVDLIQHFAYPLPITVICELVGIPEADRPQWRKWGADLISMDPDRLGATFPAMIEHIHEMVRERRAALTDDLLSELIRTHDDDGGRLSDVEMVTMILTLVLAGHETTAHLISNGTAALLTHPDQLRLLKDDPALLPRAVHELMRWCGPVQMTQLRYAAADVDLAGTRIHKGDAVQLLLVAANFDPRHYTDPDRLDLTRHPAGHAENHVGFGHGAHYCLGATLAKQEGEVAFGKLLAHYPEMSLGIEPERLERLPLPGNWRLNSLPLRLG

[4] = target: T4, P450Ema1A, N-terminally truncated P450Ema1 encoded by ema1A (Streptomyces tubercidicus strain R-922); assay: cell-based or functional assay
T4 sequence: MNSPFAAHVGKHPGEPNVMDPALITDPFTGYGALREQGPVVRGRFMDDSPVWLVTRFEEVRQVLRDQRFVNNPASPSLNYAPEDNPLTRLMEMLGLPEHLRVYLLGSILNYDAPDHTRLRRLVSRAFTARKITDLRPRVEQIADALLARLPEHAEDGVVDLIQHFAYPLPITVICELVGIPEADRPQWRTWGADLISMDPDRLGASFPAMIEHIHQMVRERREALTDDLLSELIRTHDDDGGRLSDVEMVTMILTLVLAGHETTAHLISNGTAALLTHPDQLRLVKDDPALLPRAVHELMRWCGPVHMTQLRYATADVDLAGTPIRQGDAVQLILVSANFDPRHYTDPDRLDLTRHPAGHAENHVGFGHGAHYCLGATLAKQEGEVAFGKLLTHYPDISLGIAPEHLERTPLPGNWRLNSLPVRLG

[5] = target: T5, ferredoxin encoded by fd233 from strain I-1529 (Streptomyces tubercidicus strain I-1529); assay: cell-based or functional assay
T5 sequence: T1 chain

B1: ferredoxin reductase encoded by fre3 (protein)
chain: VVDAHQTFVIVGGGLAGAKAAETLRAEGFTGRVILICDERDHPYERPPLSKGFLLGKEERDSVFVHEPAWYAQAQIELHLGQPAVRLDPEGRTVRLGDGTLIAYDKLLLATGAEPRRLDIPGTGLAGVHHLRRLAHAERLRGVLASLGRDNGHLVIAGAGWIGLEVAAAARSYGAEVTVVEAAPTPLHGILGPELGGLFTDLHREHGVRFHFGARFTEIVGEGGMVLAVRTDDGEEHPAHDVLAAIGAAPRTALAEQAGLDLADPETGGGVAVDAALRTSDPYIYAAGDVAAADHPLLDTRLRVEHWANALNGGPAAARAMLGQDISYDRIPYFFSDQYDVGMEYSGYAPPGSYAQVVCRGDVAKREFIAFWLAADGRLLAGMNVNVWDVAESIQQLIRSGAPLEPGALADPQVPLAALLP
biocatalysis activity, S. lividans ZX7 with ema1/fd233/fre operons in pTUA, pTBBKA and pEAA [1]: In each case there was no impact in S. lividans by any of the fre genes on biocatalysis activity

% Conversion of Avermectin, 2 hour (S. lividans ZX7 + pEAA-ema1/fd233, whole cells) [2]: 8.26 % conversion
% Conversion of Avermectin, 2 hour (S. lividans ZX7 + pTBBKA-ema1/fd233, whole cells) [2]: 8.89 % conversion
% Conversion of Avermectin, 2 hour (S. lividans ZX7 + pTUA-ema1/fd233, whole cells) [2]: 23.3 % conversion
% Conversion of Avermectin, 16 hour (Pseudomonas putida + pRK-ema1/fd233, whole cells) [2]: 32 % conversion
% Conversion of Avermectin, 16 hour (S. lividans ZX7 + pEAA-ema1/fd233, whole cells) [2]: 10.7 % conversion
% Conversion of Avermectin, 16 hour (S. lividans ZX7 + pTBBKA-ema1/fd233, whole cells) [2]: 31 % conversion
% Conversion of Avermectin, 16 hour (S. lividans ZX7 + pTUA-ema1/fd233, whole cells) [2]: 61.2 % conversion
biocatalysis activity of pTUA-ema1/fd233 in S. lividans relative to pTUA-ema1 (fold) [2]: 1.5 to 3 fold
% Conversion of Avermectin, 2 hour (S. lividans ZX7 + pTUA-ema2/fd233, whole cells) [3]: 1.85 % conversion
% Conversion of Avermectin, 16 hour (S. lividans ZX7 + pTUA-ema2/fd233, whole cells) [3]: 6.4 % conversion
% Conversion of avermectin, 16 hrs (S. avermitilis MOS-0001 + pTBBKA-ema1A/fd233, whole cells) [4]: 28.5 % conversion
% Conversion of avermectin, 16 hrs (S. avermitilis MOS-0001 + pTUA-ema1A/fd233, whole cells) [4]: 24 % conversion
B2: ferredoxin encoded by fd233 from strain I-1529 (protein)
chain: T1 chain

B3: ferredoxin reductase encoded by fre14 (protein)
chain: MAQNTAFIIAGAGLAGAKAAETLRAEGFGGPVLLLGDERERPYERPPLSKGYLLGTSEREKAYVHPPQWYAEHDVDLRLGNAVTALDPAGHEVTLADGSRLGYAKLLLATGSTPRRLPVPGADLDGVHTLRYLADSDRLKDLFRSASRIVVIGGGWIGLETTAAARAAGVEVTVLESAPLPLLGVLGREVAQVFADLHTEHGVALRCDTQVTEITGTNGAVDGVRLADGTRIAADAVIVGVGITPNSETAAAAGLKVDNGVVVDERLCSSHPDIYAAGDVANAYHPLLGKHLRVEHWANALHQPKTAARAMLGGEAGYDRLPYFFTDQYDLGMEYTGHVEPGGYDRVVFRGDTGAREFIAFWLSGGRVLAGMNVNVWDVTDPIRALVASGRAVDPERLADADVPLADLVP
biocatalysis activity, S. lividans ZX7 with ema1/fd233/fre operons in pTUA, pTBBKA and pEAA [1]: In each case there was no impact in S. lividans by any of the fre genes on biocatalysis activity

conversion of avermectin to 4″-keto-avermectin, P. putida ATCC 17453 with the ema1/fd233/fre16 operon (whole cell assay; 23% without fre16) [5]: 44 % conversion
B4: ferredoxin reductase encoded by fre16 from strain I-1529 (enzyme)
chain: VVDAHQTFVIVGGGLAGAKAAETLRAEGFTGRVILICDERDHPYERPPLSKGFLLGKEERDSVFVHEPAWYAQAQIELHLGQPAVRLDPEAKTVRLGDGTLIAYDKLLLATGAEPRRLDIPGTGLAGVHHLRRLAHAERLRGVLASLGRDNGHLVIAGAGWIGLEVAAAARSYGAEVTVVEAAPTPLHGILGPELGGLFTELHRAHGVRFHFGARFTEIVGQDGMVLAVRTDDGEEHPAHDVLAAIGAAPRTALAEQAGLDLADPEAGGGVAVDATLRTSDPYIYAAGDVAAADHPLLDTRLRVEHWANALNGGPAAARAMLGQDISYDRVPYFFSDQYDVGMEYSGYAPPGSYAQVVCRGDVAKREFIAFWLGEDGRLLAGMNVNVWDVAETIQQLIRGGVRLEPGELADPEVPLTSLLP
biocatalysis activity, S. lividans ZX7 with ema1/fd233/fre operons in pTUA, pTBBKA and pEAA [1]: In each case there was no impact in S. lividans by any of the fre genes on biocatalysis activity

B5: ferredoxin reductase encoded by fre12 (protein)
chain: MPAARRRLRPPHRSGDLPARPPGRAHPPRDRPGRHDLRPSRRGGGHRRMKSVAVIGASLAGLYAARSLRSQGFDGRLVIVGDECHGPYDRPPLSKDFLTGATDPGRLALADAEEIAELDAEWLLGTRATGLDTGGRTVLLDGGRSLTTDGVVLATGAAPRLLPGPVPAGVHTLRTLDDAQALRADLAPAPVRVVVIGGGFIGAEVASSCAALGHDVTVVEAAPLPLVPQLGHAMAEICAALHADHGVTLLTGTGVARLRSEGDGRRVTGVELTDGRLLPADVVVVGIGVRPRTAWLTDSGLPLDDGVLCDAGCVTPLPAVVAVGDVARVDGARAEHWTSATEQAAVAARNLLAGSTVATHRSLPYFWSDQYGVRIQFAGHRLPTDTPRVLEGSPDDRSFLACYERDGRTTAVLALNRPRPFMRLRRELARTALSATT
biocatalysis activity, S. lividans ZX7 with ema1/fd233/fre operons in pTUA, pTBBKA and pEAA [1]: In each case there was no impact in S. lividans by any of the fre genes on biocatalysis activity
